Assay results as given in paper PMC9278869.

Biological target: Flag-ACKR3-RlucII (human) (UniProt P25106)
Conditions: scale: log EC50

Sequence of Flag-ACKR3-RlucII (human) (P25106 whole entry): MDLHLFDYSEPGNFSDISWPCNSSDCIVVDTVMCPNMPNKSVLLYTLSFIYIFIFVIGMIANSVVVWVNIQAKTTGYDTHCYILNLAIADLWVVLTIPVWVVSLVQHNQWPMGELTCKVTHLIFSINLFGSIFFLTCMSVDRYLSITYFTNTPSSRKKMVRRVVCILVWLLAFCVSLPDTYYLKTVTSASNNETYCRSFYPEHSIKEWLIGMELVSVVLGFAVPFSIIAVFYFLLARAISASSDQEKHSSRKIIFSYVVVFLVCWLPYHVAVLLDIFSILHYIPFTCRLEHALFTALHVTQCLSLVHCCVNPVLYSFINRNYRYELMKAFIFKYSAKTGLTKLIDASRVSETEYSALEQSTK

wild-type CXCL12 (CXCL12WT) (from UniProt P48061 22-93) (ligand)
log EC50 of GFP10–β-arrestin 2 recruitment to ACKR3-RlucII (BRET) as a function of CXCL12WT, with 2 μM CID25: -8.89
log EC50 of GFP10–β-arrestin 2 recruitment to ACKR3-RlucII (BRET) as a function of CXCL12WT, without CID25: -8.87
